Here are results for 8 molecules from US20180320179A1, “LANOSTEROL 14-ALPHA DEMETHYLASE (CYP51) NUCLEIC ACID MOLECULES THAT CONTROL PATHOGENS” (Dow AgroSciences LLC, priority 2017, published 2018).

B1: MgCyp51-T4: dsRNA tile of Zymoseptoria tritici Cyp51, 178 bp, location 647-824 (nucleic acid, listed as Zymoseptoria tritici)
chain: AGGGCTTCGACTCGTCTTTCGCGGACCTCTACCACTACCTCGATATGGGATTCACACCGATCAACTTTATGCTTCCGTGGGCGCCCCTTCCCCAGAACCGACGCCGCGATTATGCGCAGAAGAAGATGTCCGAGACATACATGTCGATCATTCAGAAGAGACGAGAGTCCAAAACGGG
B2: MgCyp51-T10: dsRNA tile of Zymoseptoria tritici Cyp51, 172 bp, location 345-516 (nucleic acid, listed as Zymoseptoria tritici)
chain: GGACGTCAACGCGGAGGAGATATACAGCCCGCTGACCACTCCTGTCTTTGGCAAGGATGTGGTTTATGATTGTCCCAATTCGAAGCTCATGGAGCAGAAGAAGTTCGTCAAGTACGGCCTCACAACCTCTGCCCTCCAGTCCTACGTGACCTTGATCGCCGCCGAGACCCGC
B3: MgCyp51-T2: dsRNA tile of Zymoseptoria tritici Cyp51, 165 bp, location 48-212 (nucleic acid, listed as Zymoseptoria tritici)
chain: CCAGACCAGCCTCTGGAAACTTGTCGGACTTGGATTCCTCGCCTTCAGCACGCTCGCCATCCTCCTCAATGTCCTCTCACAACTTCTCTTCCGTGGCAAGTTGTCCGATCCGCCACTCGTATTCCACTGGGTGCCCTTCATCGGAAGCACCATCACATACGGCAT
B4: MgCyp51-T11: dsRNA tile of Zymoseptoria tritici Cyp51, 172 bp, location 775-946 (nucleic acid, listed as Zymoseptoria tritici)
chain: TCCGAGACATACATGTCGATCATTCAGAAGAGACGAGAGTCCAAAACGGGCGAACATGAGGAAGACATGATCCACAACTTGATGCAGTGCAAATACAAGGACGGCAATGCCATTCCCGACAAGGAGATTGCTCATATGATGATTGCGCTGCTCATGGCCGGCCAGCACTCTT
B5: MgCyp51-T1: dsRNA tile of Zymoseptoria tritici Cyp51, 232 bp, location 166-397 (nucleic acid, listed as Zymoseptoria tritici)
chain: GTATTCCACTGGGTGCCCTTCATCGGAAGCACCATCACATACGGCATCGACCCATACAAGTTCTTCTTCTCCTGTCGGGAAAAGTATGGAGATGTCTTTACATTCATCCTGCTGGGAAAGAAGACGACGGTGTGCTTGGGCACCAAGGGCAATGATTTTATTTTGAATGGAAAACTGAAGGACGTCAACGCGGAGGAGATATACAGCCCGCTGACCACTCCTGTCTTTGGCA
B6: MgCyp51-T9: dsRNA tile of Zymoseptoria tritici Cyp51, 172 bp, location 1-172 (nucleic acid, listed as Zymoseptoria tritici)
chain: ATGGGTCTCCTCCAGGAAGTCCTCGCGCAGTTCGACGCGCAATTCGGCCAGACCAGCCTCTGGAAACTTGTCGGACTTGGATTCCTCGCCTTCAGCACGCTCGCCATCCTCCTCAATGTCCTCTCACAACTTCTCTTCCGTGGCAAGTTGTCCGATCCGCCACTCGTATTCC
modifications: double-stranded RNA
B7: MgCyp51-T3: dsRNA tile of Zymoseptoria tritici Cyp51, 230 bp, location 450-679 (nucleic acid, listed as Zymoseptoria tritici)
chain: CGTCAAGTACGGCCTCACAACCTCTGCCCTCCAGTCCTACGTGACCTTGATCGCCGCCGAGACCCGCCAGTTCTTCGACCGCAACAACCCTCATAAGAAGTTCGCATCGACCAGCGGCACGATCGATCTCCCACCAGCCCTCGCCGAACTTACGATCTATACTGCCAGCCGATCATTGCAAGGAAAGGAAGTCCGCGAGGGCTTCGACTCGTCTTTCGCGGACCTCTACC
B8: MgCyp51-T7: dsRNA tile of Zymoseptoria tritici Cyp51, 111 bp, location 1490-1600 (nucleic acid, listed as Zymoseptoria tritici)
chain: CGACGATGGTTCGCGATTTCAAGTTTTACAATGTGGATGGCAGCGACAACGTGGTGGGTACGGATTACAGCAGTTTGTTCAGCCGGCCGCTGTCGCCGGCAGTAGTAAAGT
modifications: long dsRNA tile, purified, chemistry not given here

Some results are limits rather than exact numbers.

The first data set deals with Zymoseptoria tritici (SEPTTR-184). Briefly: Cyp51 dsRNA tile (fragment) foliar application bioassay (Example 6). In kind it is in vivo. The note with it: 1 day protectant; calculated from disease control. On the procedure:
The 200 ppm concentration for each treatment was prepared by adding the calculated volume of the corresponding dsRNA solution in TE buffer. […] A non-target dsRNA control (YFP), a TE/phosphate buffer control, disease pressure control, and clean plant control were included.
These plants were inoculated with an aqueous spore suspension of Zymoseptoria tritici either prior to or after fungicidal treatments. After inoculation the plants were kept in 100% relative humidity to allow spores to germinate and infect the leaves. The plants were then transferred to a greenhouse set at 20° C. until disease developed.
Turning to B1, the “ED50 (ppm) SEPTTR-184 1DP” value was less than 3.125 ppm and the “ED80 (ppm) SEPTTR-184 1DP” value is reported as 200 ppm.
In the same order, the values of B2 are less than 3.125 ppm and more than 200 ppm.
In the case of B3, the “ED50 (ppm) SEPTTR-184 1DP” value is less than 3.125 ppm and the “ED80 (ppm) SEPTTR-184 1DP” value is listed as more than 200 ppm.
For B4, the “ED50 (ppm) SEPTTR-184 1DP” value is reported as less than 3.125 ppm and the “ED80 (ppm) SEPTTR-184 1DP” value is reported as more than 200 ppm.
In the same order, the values of B5 are less than 3.125 ppm and more than 200 ppm.
For B6 the same measures were less than 3.125 ppm and more than 200 ppm.
For B7 the same measures were less than 3.125 ppm and more than 200 ppm.
In the case of B8, the “ED50 (ppm) SEPTTR-184 1DP” value was 3.125 ppm and the “ED80 (ppm) SEPTTR-184 1DP” value is listed as more than 200 ppm.

The same data set, now with this note: 1 day protectant; rate 3.125 ppm; average of 2 trials.
Take B1: the “Disease Control (%) SEPTTR-184 1DP” value amounted to 53%.
Regarding B2, the “Disease Control (%) SEPTTR-184 1DP” value was 58%.
As for B3, the “Disease Control (%) SEPTTR-184 1DP” value came out at 53%.
Same read-out and setting: under B4 stands 63%; under B5, 65%.
On the same count and under the same terms, next, B6: 53%; B7: 64%.
Still for that read-out and setting: next, B8: 50%.

The same data set, now with this note: 1 day protectant; rate 12.5 ppm; average of 2 trials.
For B1, the “Disease Control (%) SEPTTR-184 1DP” value was 65%.
Turning to B2, the “Disease Control (%) SEPTTR-184 1DP” value was 64%.
As to B3, the “Disease Control (%) SEPTTR-184 1DP” value was found to be 67%.
On the same count and under the same terms, next, B4: 61%; B5: 68%.
On the same count and under the same terms, next, B6: 53%; B7: 72%; B8: 64%.

The data set is the same for the next values; noted with them: 1 day protectant; rate 50 ppm; average of 2 trials.
For the molecule B1, the “Disease Control (%) SEPTTR-184 1DP” value was found to be 61%.
B2: the “Disease Control (%) SEPTTR-184 1DP” value is 73%.
Still for that read-out and setting: under B3 stands 70%; under B4, 58%; under B5, 70%.
The same measure, in the same setting: next, B6: 57%; B7: 69%; B8: 66%.

The data set is the same for the next values; noted with them: 1 day protectant; rate 200 ppm; average of 2 trials.
In the case of B1, the “Disease Control (%) SEPTTR-184 1DP” value stood at 80%.
B2: the “Disease Control (%) SEPTTR-184 1DP” value is 75%.
The same measure, in the same setting: next, B3: 75%; B4: 61%; B5: 77%.
Same read-out and setting: next, B6: 76%; B7: 74%.
On the same count and under the same terms, under B8 stands 70%.

Still in this data set, the particulars now being: 3 days curative; calculated from disease control.
As for B1, the “ED50 (ppm) SEPTTR-184 3DC” value is reported as less than 3.125 ppm and the “ED80 (ppm) SEPTTR-184 3DC” value is reported as more than 200 ppm.
In the same order, the values of B2 are 32.692 ppm and more than 200 ppm.
For the molecule B3, the “ED50 (ppm) SEPTTR-184 3DC” value is less than 3.125 ppm and the “ED80 (ppm) SEPTTR-184 3DC” value was 125 ppm.
For B4 the same measures were 12.500 ppm and more than 200 ppm.
Turning to B5, the “ED50 (ppm) SEPTTR-184 3DC” value was less than 3.125 ppm and the “ED80 (ppm) SEPTTR-184 3DC” value is reported as more than 200 ppm.
For B6 the same measures were less than 3.125 ppm and more than 200 ppm.
For B7 the same measures were less than 3.125 ppm and more than 200 ppm.
For B8 the same measures were 5.331 ppm and more than 200 ppm.

Staying with this data set, now noted: 3 days curative; rate 3.125 ppm; average of 2 trials.
Regarding B1, the “Disease Control (%) SEPTTR-184 3DC” value turned out to be 59%.
On the same count and under the same terms, next, B2: 31%; B3: 76%; B4: 47%.
The same measure, in the same setting: under B5 stands 71%; under B6, 52%; under B7, 73%.
On to B8, for which the “Disease Control (%) SEPTTR-184 3DC” value was determined as 46%.

The data set is the same for the next values; noted with them: 3 days curative; rate 12.5 ppm; average of 2 trials.
For the molecule B1, the “Disease Control (%) SEPTTR-184 3DC” value is 52%.
Same read-out and setting: next, B2: 43%.
The same measure, in the same setting: next, B3: 72%; B4: 50%.
Same read-out and setting: under B5 stands 78%.
For B6, the “Disease Control (%) SEPTTR-184 3DC” value turned out to be 46%.
On the same count and under the same terms, under B7 stands 73%.
On to B8, for which the “Disease Control (%) SEPTTR-184 3DC” value is reported as 63%.

The data set is the same for the next values; noted with them: 3 days curative; rate 50 ppm; average of 2 trials.
Regarding B1, the “Disease Control (%) SEPTTR-184 3DC” value came out at 67%.
Still for that read-out and setting: under B2 stands 56%; under B3, 76%.
As to B4, the “Disease Control (%) SEPTTR-184 3DC” value came to 55%.
On the same count and under the same terms, under B5 stands 68%; under B6, 65%; under B7, 72%.
The same measure, in the same setting: next, B8: 66%.

Staying with this data set, now noted: 3 days curative; rate 200 ppm; average of 2 trials.
For B1, the “Disease Control (%) SEPTTR-184 3DC” value is 75%.
Still for that read-out and setting: next, B2: 58%.
The same measure, in the same setting: next, B3: 84%; B4: 42%; B5: 70%.
For B6, the “Disease Control (%) SEPTTR-184 3DC” value came out at 72%.
Same read-out and setting: under B7 stands 76%; under B8, 72%.

The same data set, now with this note: curative test.
On to B3, for which the “curative activity against SEPTTR (ranking)” value was “provided the best curative activity against SEPTTR”.

The same data set, now with this note: fragments compared with each other.
B3: the “level of control among the fragments (ranking)” value is “provided the best level of control”.
